# Results from patent US9327008B2, “Cell-permeant peptide-based inhibitor of kinases” (Purdue Research Foundation, priority 2008, dated 2016).
# What was measured:
# Format in all cases: biochemical
# EphA2 = biological target: T1, EphA2 (Homo sapiens, UniProt P29317); test: Millipore radiometric kinase activity assay, EphA2 (h)
# T1 construct: purchased Millipore (assay service)
# Procedure: (§1) A commercial radiometric assay service (Millipore, Billerica, Mass.) was used to test the specificity and potency of peptides containing a coupled transduction domain and therapeutic domain, hereinafter “complete peptides”). In these assays, if the kinase is not inhibited by an inhibitor peptide, a positively charged substrate is phosphorylated with a radiolabeled phosphate group from an ATP.
# (§2) In a final reaction volume of 25 μL, EphA2 (h) (5-10 mU) is incubated with 8 mM MOPS pH 7.0, 0.2 mM EDTA, 0.1 mg/mL poly(Glu, Tyr) 4:1, 10 mM MgAcetate and [γ-^33P-ATP] (specific activity approx. 500 cpm/pmol, concentration as required). The reaction is initiated by the addition of the MgATP mix. After incubation for 40 minutes at room temperature, the reaction is stopped by the addition of 5 μL of a 3% phosphoric acid solution. 10 μL of the reaction is then spotted onto a Filtermat A and washed three times for 5 minutes in 75 mM phosphoric acid and once in methanol prior to drying and scintillation counting.
# (§3) IC50 values for inhibitor peptides were determined using Millipore's IC50Profiler Express service. The IC50 value was estimated from a 10-point curve of one-half log dilutions. For peptides tested for specificity, the concentration of the peptides that inhibited approximately 95% of MK2 activity was chosen to profile against a battery of kinases related to MK2, cell viability, or human disease from MilliporeKinaseProfiler service. In both assays, compounds were supplied in dimethylsulfoxide (DMSO). Every kinase activity measurement was conducted in duplicate.
# (§4) Therapeutic inhibitor peptides were assayed for activity against human kinases related to MK2, cell viability, or human disease. The assays were performed using concentrations of therapeutic inhibitor peptides that yielded 2% to 8% of normal MK2 activity. Error is reported as the standard deviation between 2 samples, and “c” is rat AMPK whereas all other kinases used are human kinases.
# BTK = biological target: T2, BTK (Homo sapiens, UniProt Q06187); test: Millipore radiometric kinase activity assay, BTK (h)
# T2 construct: purchased Millipore (assay service)
# Source text: A commercial radiometric assay service (Millipore, Billerica, Mass.) was used to test the specificity and potency of peptides containing a coupled transduction domain and therapeutic domain, hereinafter “complete peptides”). In these assays, if the kinase is not inhibited by an inhibitor peptide, a positively charged substrate is phosphorylated with a radiolabeled phosphate group from an ATP. […] The reaction is initiated by the addition of the MgATP mix. […] IC50 values for inhibitor peptides were determined using Millipore's IC50Profiler Express service. The IC50 value was estimated from a 10-point curve of one-half log dilutions. […] In both assays, compounds were supplied in dimethylsulfoxide (DMSO). Every kinase activity measurement was conducted in duplicate. Therapeutic inhibitor peptides were assayed for activity against human kinases related to MK2, cell viability, or human disease. […] Error is reported as the standard deviation between 2 samples, and “c” is rat AMPK whereas all other kinases used are human kinases.
# EGFR = biological target: T3, EGFR (Homo sapiens, UniProt P00533); test: Millipore radiometric kinase activity assay, EGFR (h)
# T3 construct: purchased Millipore (assay service)
# Procedure: as §1
# as §2, with “EGFR” for “EphA2”, “EDTA, 10 mM MnCl2,” for “EDTA,”
# as §3, §4
# PhKγ2 = biological target: T4, PhKγ2 (Homo sapiens, UniProt P15735); test: Millipore radiometric kinase activity assay, PhKγ2 (h)
# T4 construct: purchased Millipore (radiometric assay service)
# T4 sequence (P15735 1-406): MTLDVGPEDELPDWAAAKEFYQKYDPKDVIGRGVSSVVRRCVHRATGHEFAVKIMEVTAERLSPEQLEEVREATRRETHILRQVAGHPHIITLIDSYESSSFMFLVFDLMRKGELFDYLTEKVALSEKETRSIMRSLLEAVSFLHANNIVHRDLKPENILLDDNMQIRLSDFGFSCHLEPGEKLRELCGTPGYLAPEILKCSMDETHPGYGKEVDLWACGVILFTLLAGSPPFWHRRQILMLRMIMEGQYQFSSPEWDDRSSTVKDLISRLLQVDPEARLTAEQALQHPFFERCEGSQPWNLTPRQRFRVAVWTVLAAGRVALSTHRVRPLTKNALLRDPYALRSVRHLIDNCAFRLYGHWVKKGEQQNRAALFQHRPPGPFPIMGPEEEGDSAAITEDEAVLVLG
# Procedure: as §1
# as §2, with “PhKγ2” for “EphA2”, “250 μM […] [SEQ ID NO: 52],” for “0.1 mg/mL poly(Glu, Tyr) 4:1,”, “P30 filtermat” for “Filtermat A”
# as §3, §4
# FGFR1 = biological target: T5, FGFR1 (Homo sapiens, UniProt P11362); test: Millipore radiometric kinase activity assay, FGFR1 (h)
# T5 construct: purchased Millipore (assay service)
# Procedure: as §1
# as §2, with “25 μL, FGFR1 (h) (5-10” for “25 μL, EphA2 (h) (5-10”, “mM EDTA, 250 μM […] [SEQ ID NO: 56], 10 mM” for “mM EDTA, 0.1 mg/mL poly(Glu, Tyr) 4:1, 10 mM”, “of 5 μL, of a” for “of 5 μL of a”, “solution. 10 μL, of the” for “solution. 10 μL of the”, “onto a P30 filtermat and washed” for “onto a Filtermat A and washed”
# as §3, §4
# T2 sequence (Q06187 whole entry): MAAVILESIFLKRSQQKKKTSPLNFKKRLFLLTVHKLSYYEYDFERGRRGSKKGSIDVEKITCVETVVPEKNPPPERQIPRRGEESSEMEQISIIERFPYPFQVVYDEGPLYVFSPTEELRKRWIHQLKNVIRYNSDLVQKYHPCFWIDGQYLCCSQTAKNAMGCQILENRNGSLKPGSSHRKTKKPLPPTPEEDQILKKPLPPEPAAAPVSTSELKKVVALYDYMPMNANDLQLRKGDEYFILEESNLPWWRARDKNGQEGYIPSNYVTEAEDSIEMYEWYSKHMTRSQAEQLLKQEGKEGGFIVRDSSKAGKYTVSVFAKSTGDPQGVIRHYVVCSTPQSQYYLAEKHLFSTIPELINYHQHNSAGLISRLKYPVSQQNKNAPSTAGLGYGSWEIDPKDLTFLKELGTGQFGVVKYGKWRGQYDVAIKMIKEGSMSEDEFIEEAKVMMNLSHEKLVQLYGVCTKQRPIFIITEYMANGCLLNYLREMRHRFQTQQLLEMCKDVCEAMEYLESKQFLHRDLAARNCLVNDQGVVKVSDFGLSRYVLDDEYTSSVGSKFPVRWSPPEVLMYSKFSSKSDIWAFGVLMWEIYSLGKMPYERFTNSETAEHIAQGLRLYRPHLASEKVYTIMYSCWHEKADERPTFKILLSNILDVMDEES
# T5 sequence (P11362 22-822): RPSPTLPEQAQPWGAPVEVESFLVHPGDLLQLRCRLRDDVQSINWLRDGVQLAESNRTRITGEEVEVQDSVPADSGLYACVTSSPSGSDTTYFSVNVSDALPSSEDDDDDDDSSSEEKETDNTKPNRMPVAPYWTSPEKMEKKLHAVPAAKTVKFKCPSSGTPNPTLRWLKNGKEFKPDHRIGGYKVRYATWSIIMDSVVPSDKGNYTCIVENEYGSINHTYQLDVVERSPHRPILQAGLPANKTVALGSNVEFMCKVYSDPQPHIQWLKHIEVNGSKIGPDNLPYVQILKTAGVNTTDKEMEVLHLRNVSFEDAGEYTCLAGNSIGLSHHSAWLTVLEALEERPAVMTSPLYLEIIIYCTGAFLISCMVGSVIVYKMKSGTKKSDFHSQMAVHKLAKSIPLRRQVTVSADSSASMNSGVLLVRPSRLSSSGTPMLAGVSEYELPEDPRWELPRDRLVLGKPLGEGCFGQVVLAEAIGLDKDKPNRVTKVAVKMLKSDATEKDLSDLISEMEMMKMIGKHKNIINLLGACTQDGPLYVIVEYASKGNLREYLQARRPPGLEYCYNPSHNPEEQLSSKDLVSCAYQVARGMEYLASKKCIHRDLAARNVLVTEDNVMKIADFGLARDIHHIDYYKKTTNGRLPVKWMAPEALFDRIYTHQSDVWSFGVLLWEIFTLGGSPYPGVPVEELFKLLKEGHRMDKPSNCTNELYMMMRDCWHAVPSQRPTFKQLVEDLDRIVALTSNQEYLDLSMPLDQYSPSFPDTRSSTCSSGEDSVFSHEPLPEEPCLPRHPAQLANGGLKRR
# T1 sequence (P29317 24-976): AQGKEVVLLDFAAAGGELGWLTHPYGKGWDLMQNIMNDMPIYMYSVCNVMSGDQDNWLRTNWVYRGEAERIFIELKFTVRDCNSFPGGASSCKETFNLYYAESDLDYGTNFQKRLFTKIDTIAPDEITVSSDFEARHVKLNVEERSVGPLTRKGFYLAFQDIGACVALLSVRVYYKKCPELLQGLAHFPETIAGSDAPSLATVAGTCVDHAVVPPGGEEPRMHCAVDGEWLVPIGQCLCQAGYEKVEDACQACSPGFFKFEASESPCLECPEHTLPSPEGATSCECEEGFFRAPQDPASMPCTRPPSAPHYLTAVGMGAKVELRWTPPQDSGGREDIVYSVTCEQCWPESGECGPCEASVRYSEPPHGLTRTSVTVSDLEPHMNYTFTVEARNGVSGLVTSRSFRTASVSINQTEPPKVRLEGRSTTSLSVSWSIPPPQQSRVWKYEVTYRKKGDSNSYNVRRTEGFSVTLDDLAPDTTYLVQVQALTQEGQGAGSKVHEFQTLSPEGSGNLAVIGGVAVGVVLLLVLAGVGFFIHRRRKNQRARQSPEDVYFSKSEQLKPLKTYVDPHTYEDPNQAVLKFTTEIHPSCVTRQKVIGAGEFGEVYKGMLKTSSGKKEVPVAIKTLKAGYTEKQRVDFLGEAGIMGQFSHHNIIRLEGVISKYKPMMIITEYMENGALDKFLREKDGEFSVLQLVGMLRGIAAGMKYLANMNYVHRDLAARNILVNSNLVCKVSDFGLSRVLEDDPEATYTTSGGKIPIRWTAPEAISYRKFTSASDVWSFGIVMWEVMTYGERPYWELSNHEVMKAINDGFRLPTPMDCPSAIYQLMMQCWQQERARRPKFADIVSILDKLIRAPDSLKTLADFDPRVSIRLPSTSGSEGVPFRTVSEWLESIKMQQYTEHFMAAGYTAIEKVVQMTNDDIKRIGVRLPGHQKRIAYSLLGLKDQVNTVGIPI
Sequence,EphA2 Kinase Activity (%) (+SD %) (EphA2; peptide 30 μM),EphA2 Kinase Activity (%) (+SD %) (EphA2; peptide 100 μM),BTK Kinase Activity (%) (+SD %) (BTK; peptide 30 μM),BTK Kinase Activity (%) (+SD %) (BTK; peptide 100 μM),EGFR Kinase Activity (%) (+SD %) (EGFR; peptide 30 μM),EGFR Kinase Activity (%) (+SD %) (EGFR; peptide 100 μM),PhKγ2 Kinase Activity (%) (+SD %) (PhKγ2; peptide 30 μM),PhKγ2 Kinase Activity (%) (+SD %) (PhKγ2; peptide 100 μM),FGFR1 Kinase Activity (%) (+SD %) (FGFR1; peptide 30 μM),FGFR1 Kinase Activity (%) (+SD %) (FGFR1; peptide 100 μM)
WLRRIKAWLRRIKALNRQLGVAA,38 (4) %,32 (2) %,5 (0) %,19 (1) %,10 (4) %,18 (2) %,15 (0) %,20 (0) %,27 (1) %,22 (1) %
KAFAKLAARLYRKALARQLGVAA,–,22 (7) %,–,16 (3) %,–,16 (1) %,–,27 (3) %,–,35 (1) %
